Measurements reported in patent US20250049970A1, “DLL3 TARGETING PEPTIDES AND CONSTRUCTS THEREOF” (MARIANA ONCOLOGY INC., priority 2023, published 2025).
Bridges are numbered along the chain shown (N, C = ends). [ ]: non-standard residue; d: D form. The star is where a group is joined. DOTA = O=C(O)CN1CCN(CC(=O)O)CCN(CC(=O)*)CCN(CC(=O)O)CC1

T1: DLL3 (target ligand immobilized on a SA sensor chip via streptavidin capture) (Homo sapiens (Human), UniProt Q9NYJ7 27-492, limits assumed)
T1 sequence: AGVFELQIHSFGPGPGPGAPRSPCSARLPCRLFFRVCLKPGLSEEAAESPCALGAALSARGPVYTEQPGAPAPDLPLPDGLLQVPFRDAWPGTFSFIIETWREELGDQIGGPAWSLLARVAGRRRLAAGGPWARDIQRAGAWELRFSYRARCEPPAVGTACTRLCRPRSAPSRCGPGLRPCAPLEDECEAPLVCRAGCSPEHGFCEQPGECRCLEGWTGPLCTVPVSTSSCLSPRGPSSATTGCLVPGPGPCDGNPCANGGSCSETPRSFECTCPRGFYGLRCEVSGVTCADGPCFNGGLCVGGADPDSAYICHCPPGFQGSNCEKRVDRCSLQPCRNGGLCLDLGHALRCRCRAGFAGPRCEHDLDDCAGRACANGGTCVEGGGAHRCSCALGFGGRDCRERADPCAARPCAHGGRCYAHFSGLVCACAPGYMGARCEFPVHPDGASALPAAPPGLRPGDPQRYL

B1: SEQ ID NO 72 (peptide)
peptide: Ac-MWTLCDTWDTCFP-NH2
modifications: disulfide 5-11
SMILES: CSCC[C@H](NC(C)=O)C(=O)N[C@@H](Cc1c[nH]c2ccccc12)C(=O)N[C@H](C(=O)N[C@@H](CC(C)C)C(=O)N[C@H]1CSSC[C@@H](C(=O)N[C@@H](Cc2ccccc2)C(=O)N2CCC[C@H]2C(N)=O)NC(=O)[C@H]([C@@H](C)O)NC(=O)[C@H](CC(=O)O)NC(=O)[C@H](Cc2c[nH]c3ccccc23)NC(=O)[C@H]([C@@H](C)O)NC(=O)[C@H](CC(=O)O)NC1=O)[C@@H](C)O
B2: SEQ ID NO 78 (peptide)
peptide: Ac-MVWVPCEWDDCFY-NH2
modifications: disulfide 6-11
SMILES: CSCC[C@H](NC(C)=O)C(=O)N[C@H](C(=O)N[C@@H](Cc1c[nH]c2ccccc12)C(=O)N[C@H](C(=O)N1CCC[C@H]1C(=O)N[C@H]1CSSC[C@@H](C(=O)N[C@@H](Cc2ccccc2)C(=O)N[C@@H](Cc2ccc(O)cc2)C(N)=O)NC(=O)[C@H](CC(=O)O)NC(=O)[C@H](CC(=O)O)NC(=O)[C@H](Cc2c[nH]c3ccccc23)NC(=O)[C@H](CCC(=O)O)NC1=O)C(C)C)C(C)C
B3: SEQ ID NO 68 (peptide)
peptide: Ac-WTICADWAQCWP-NH2
modifications: disulfide 4-10
SMILES: CC[C@H](C)[C@H](NC(=O)[C@@H](NC(=O)[C@H](Cc1c[nH]c2ccccc12)NC(C)=O)[C@@H](C)O)C(=O)N[C@H]1CSSC[C@@H](C(=O)N[C@@H](Cc2c[nH]c3ccccc23)C(=O)N2CCC[C@H]2C(N)=O)NC(=O)[C@H](CCC(N)=O)NC(=O)[C@H](C)NC(=O)[C@H](Cc2c[nH]c3ccccc23)NC(=O)[C@H](CC(=O)O)NC(=O)[C@H](C)NC1=O
B4: SEQ ID NO 89 (peptide)
peptide: Ac-MWTICANWHDCWP-NH2
modifications: disulfide 5-11
SMILES: CC[C@H](C)[C@H](NC(=O)[C@@H](NC(=O)[C@H](Cc1c[nH]c2ccccc12)NC(=O)[C@H](CCSC)NC(C)=O)[C@@H](C)O)C(=O)N[C@H]1CSSC[C@@H](C(=O)N[C@@H](Cc2c[nH]c3ccccc23)C(=O)N2CCC[C@H]2C(N)=O)NC(=O)[C@H](CC(=O)O)NC(=O)[C@H](Cc2c[nH]cn2)NC(=O)[C@H](Cc2c[nH]c3ccccc23)NC(=O)[C@H](CC(N)=O)NC(=O)[C@H](C)NC1=O
B5: SEQ ID NO 87 (peptide)
peptide: Ac-MWAICNNWHDCWP-NH2
modifications: disulfide 5-11
SMILES: CC[C@H](C)[C@H](NC(=O)[C@H](C)NC(=O)[C@H](Cc1c[nH]c2ccccc12)NC(=O)[C@H](CCSC)NC(C)=O)C(=O)N[C@H]1CSSC[C@@H](C(=O)N[C@@H](Cc2c[nH]c3ccccc23)C(=O)N2CCC[C@H]2C(N)=O)NC(=O)[C@H](CC(=O)O)NC(=O)[C@H](Cc2c[nH]cn2)NC(=O)[C@H](Cc2c[nH]c3ccccc23)NC(=O)[C@H](CC(N)=O)NC(=O)[C@H](CC(N)=O)NC1=O
B6: SEQ ID NO 83 (peptide)
peptide: Ac-MWTICNNWH[dA]CWP-NH2
modifications: disulfide 5-11
SMILES: CC[C@H](C)[C@H](NC(=O)[C@@H](NC(=O)[C@H](Cc1c[nH]c2ccccc12)NC(=O)[C@H](CCSC)NC(C)=O)[C@@H](C)O)C(=O)N[C@H]1CSSC[C@@H](C(=O)N[C@@H](Cc2c[nH]c3ccccc23)C(=O)N2CCC[C@H]2C(N)=O)NC(=O)[C@@H](C)NC(=O)[C@H](Cc2c[nH]cn2)NC(=O)[C@H](Cc2c[nH]c3ccccc23)NC(=O)[C@H](CC(N)=O)NC(=O)[C@H](CC(N)=O)NC1=O
B7: SEQ ID NO 81 (peptide)
peptide: Ac-[dA]WTICNNWHDCWP-NH2
modifications: disulfide 5-11
SMILES: CC[C@H](C)[C@H](NC(=O)[C@@H](NC(=O)[C@H](Cc1c[nH]c2ccccc12)NC(=O)[C@@H](C)NC(C)=O)[C@@H](C)O)C(=O)N[C@H]1CSSC[C@@H](C(=O)N[C@@H](Cc2c[nH]c3ccccc23)C(=O)N2CCC[C@H]2C(N)=O)NC(=O)[C@H](CC(=O)O)NC(=O)[C@H](Cc2c[nH]cn2)NC(=O)[C@H](Cc2c[nH]c3ccccc23)NC(=O)[C@H](CC(N)=O)NC(=O)[C@H](CC(N)=O)NC1=O
B8: SEQ ID NO 84 (peptide)
peptide: Ac-MWTICNNWHDC[dA]P-NH2
modifications: disulfide 5-11
SMILES: CC[C@H](C)[C@H](NC(=O)[C@@H](NC(=O)[C@H](Cc1c[nH]c2ccccc12)NC(=O)[C@H](CCSC)NC(C)=O)[C@@H](C)O)C(=O)N[C@H]1CSSC[C@@H](C(=O)N[C@H](C)C(=O)N2CCC[C@H]2C(N)=O)NC(=O)[C@H](CC(=O)O)NC(=O)[C@H](Cc2c[nH]cn2)NC(=O)[C@H](Cc2c[nH]c3ccccc23)NC(=O)[C@H](CC(N)=O)NC(=O)[C@H](CC(N)=O)NC1=O
B9: SEQ ID NO 88 (peptide)
peptide: Ac-MWTACNNWHDCWP-NH2
modifications: disulfide 5-11
SMILES: CSCC[C@H](NC(C)=O)C(=O)N[C@@H](Cc1c[nH]c2ccccc12)C(=O)N[C@H](C(=O)N[C@@H](C)C(=O)N[C@H]1CSSC[C@@H](C(=O)N[C@@H](Cc2c[nH]c3ccccc23)C(=O)N2CCC[C@H]2C(N)=O)NC(=O)[C@H](CC(=O)O)NC(=O)[C@H](Cc2c[nH]cn2)NC(=O)[C@H](Cc2c[nH]c3ccccc23)NC(=O)[C@H](CC(N)=O)NC(=O)[C@H](CC(N)=O)NC1=O)[C@@H](C)O
B10: SEQ ID NO 86 (peptide)
peptide: Ac-AWTICNNWHDCWP-NH2
modifications: disulfide 5-11
SMILES: CC[C@H](C)[C@H](NC(=O)[C@@H](NC(=O)[C@H](Cc1c[nH]c2ccccc12)NC(=O)[C@H](C)NC(C)=O)[C@@H](C)O)C(=O)N[C@H]1CSSC[C@@H](C(=O)N[C@@H](Cc2c[nH]c3ccccc23)C(=O)N2CCC[C@H]2C(N)=O)NC(=O)[C@H](CC(=O)O)NC(=O)[C@H](Cc2c[nH]cn2)NC(=O)[C@H](Cc2c[nH]c3ccccc23)NC(=O)[C@H](CC(N)=O)NC(=O)[C@H](CC(N)=O)NC1=O
B11: SEQ ID NO 70 (peptide)
peptide: Ac-MWKICSDWQNCWP-NH2
modifications: disulfide 5-11
SMILES: CC[C@H](C)[C@H](NC(=O)[C@H](CCCCN)NC(=O)[C@H](Cc1c[nH]c2ccccc12)NC(=O)[C@H](CCSC)NC(C)=O)C(=O)N[C@H]1CSSC[C@@H](C(=O)N[C@@H](Cc2c[nH]c3ccccc23)C(=O)N2CCC[C@H]2C(N)=O)NC(=O)[C@H](CC(N)=O)NC(=O)[C@H](CCC(N)=O)NC(=O)[C@H](Cc2c[nH]c3ccccc23)NC(=O)[C@H](CC(=O)O)NC(=O)[C@H](CO)NC1=O
B12: SEQ ID NO 76 (peptide)
peptide: Ac-MDCNFFDCDAWTW-NH2
modifications: disulfide 3-8
SMILES: CSCC[C@H](NC(C)=O)C(=O)N[C@@H](CC(=O)O)C(=O)N[C@H]1CSSC[C@@H](C(=O)N[C@@H](CC(=O)O)C(=O)N[C@@H](C)C(=O)N[C@@H](Cc2c[nH]c3ccccc23)C(=O)N[C@H](C(=O)N[C@@H](Cc2c[nH]c3ccccc23)C(N)=O)[C@@H](C)O)NC(=O)[C@H](CC(=O)O)NC(=O)[C@H](Cc2ccccc2)NC(=O)[C@H](Cc2ccccc2)NC(=O)[C@H](CC(N)=O)NC1=O
B13: SEQ ID NO 79 (peptide)
peptide: Ac-MSDCWLQWNCPFD-NH2
modifications: disulfide 4-10
SMILES: CSCC[C@H](NC(C)=O)C(=O)N[C@@H](CO)C(=O)N[C@@H](CC(=O)O)C(=O)N[C@H]1CSSC[C@@H](C(=O)N2CCC[C@H]2C(=O)N[C@@H](Cc2ccccc2)C(=O)N[C@@H](CC(=O)O)C(N)=O)NC(=O)[C@H](CC(N)=O)NC(=O)[C@H](Cc2c[nH]c3ccccc23)NC(=O)[C@H](CCC(N)=O)NC(=O)[C@H](CC(C)C)NC(=O)[C@H](Cc2c[nH]c3ccccc23)NC1=O
B14: SEQ ID NO 71 (peptide)
peptide: Ac-MWHICQEWATCWP-NH2
modifications: disulfide 5-11
SMILES: CC[C@H](C)[C@H](NC(=O)[C@H](Cc1c[nH]cn1)NC(=O)[C@H](Cc1c[nH]c2ccccc12)NC(=O)[C@H](CCSC)NC(C)=O)C(=O)N[C@H]1CSSC[C@@H](C(=O)N[C@@H](Cc2c[nH]c3ccccc23)C(=O)N2CCC[C@H]2C(N)=O)NC(=O)[C@H]([C@@H](C)O)NC(=O)[C@H](C)NC(=O)[C@H](Cc2c[nH]c3ccccc23)NC(=O)[C@H](CCC(=O)O)NC(=O)[C@H](CCC(N)=O)NC1=O

biological target: T1, DLL3 (target ligand immobilized on a SA …); assay: SPR, Biacore S200, target ligand on SA chip, 25 C, 1:1 fit
Description: Target ligand was immobilized on a SA sensor chip via streptavidin capture. A reference surface was set up for nonspecific binding and refractive index changes. For analysis of the kinetics of interactions, varying concentrations of peptides were injected at a flow rate of 50 μL/minute using running buffer containing 20 mM phosphate buffer with 2.7 mM KCl, 137 mM NaCl and 0.05% Surfactant P20. Sensorgram curves were fitted with 1:1 binding model, and affinity and kinetic parameters were obtained using either Biacore S200 evaluation software 1.1.1 or Biacore Insight evaluation 4.0.

Row | Kd [nM] | Binder
1 | 24 | B1
2 | 68 | B2
3 | 6.1 | B3
4 | 12 | Ac-MWTICNNWHDCWP-NH2 (disulfide 5-11) [SEQ ID NO 69]
5 | 8.1 | B4
6 | 53 | B5
7 | 320 | B6
8 | 6.5 | B7
9 | 240 | B8
10 | 86 | B9
11 | 7.6 | B10
12 | 340 | B11
13 | 290 | B12
14 | 80 | {DOTA}-WTICNNWHDCWP-NH2 (disulfide 4-10) [SEQ ID NO 80]
15 | 32 | B13
16 | 47 | B14
